Results as given in patent US20080124340A1 (published 2008).

T1: mouse EpoR-Fc protein (muEpoR-Fc) (mouse, UniProt P14753 25-249)
T1 construct: Biotinylated in the assay; also called biotinylated muEpoR-Fc; not shown: Fc part not described
T1 sequence (looked up): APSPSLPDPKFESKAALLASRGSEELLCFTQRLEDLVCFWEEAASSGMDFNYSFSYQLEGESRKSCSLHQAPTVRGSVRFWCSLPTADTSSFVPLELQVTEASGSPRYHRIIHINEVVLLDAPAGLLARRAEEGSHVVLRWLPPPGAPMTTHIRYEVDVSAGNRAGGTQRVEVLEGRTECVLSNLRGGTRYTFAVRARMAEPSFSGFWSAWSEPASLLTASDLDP

B1: clone 10 IgG2 protein (antibody, V domains shown)
VH: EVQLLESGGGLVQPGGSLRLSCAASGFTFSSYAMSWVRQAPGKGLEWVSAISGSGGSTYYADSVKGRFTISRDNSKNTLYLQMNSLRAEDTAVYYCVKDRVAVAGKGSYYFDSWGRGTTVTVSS
VL: QSVLTQPPSVSEAPGQRVTIACSGSSSNIGNNAVSWYQQLPGKAPTLLIYYDNLLPSGVSDRFSGSKSGTSASLAISGLQSEDEADYYCAAWDDSLNDWVFGGGTKVTVL
notes: Human IgG2; also called IgG2 10
B2: clone 2 IgG2 protein (antibody, V domains shown)
VH: EVQLVQSGGGLVQPGGSLRLSCAASGFTFSSYWMSWVRQAPGKGLEWVANIKPDGSEKYYVDSVKGRFTISRDNAKNSVYLQMNSLRAEDTAVYYCARVSRGGSYSDWGQGTLVTVSS
VL: QSVLTQPPSASGSPGQSVTISCTGTSSDVGGYNYVSWYQQHPGKAPKLMIYEVSKRPSGVPDRFSGSKSGNTASLTVSGLQPEDEADYYCSSYAGRNWVFGGGTQLTVL
notes: Human IgG2 (vector pVE414NhuIgG2); light chain constant type matches the variable light chain isotype; also called IgG2 2; IgG22
B3: clone 7 IgG2 protein (antibody, V domains shown)
VH: EVQLVQSGGGLVQPGGSLRLSCAASGFTFSSYWMSWVRQAPGKGLEWVANIKPDGSEKYYVDSVKGRFTISRDNAKNSVYLQMNSLRAEDTAVYYCARVSRGGSYSDWGKGTLVTVSS
VL: QSALTQPASVSGSPGQSIIISCTGTRSDIGGYNYVSWYQHHPGRAPKLIIFDVNNRPSGVSHRFSGSKSGNTASLTISGLQAEDEADYYCNSFTDSRTWLFGGGTKLTVL
notes: Human IgG2; also called IgG2 7
B4: clone 5 IgG2 protein (antibody, V domains shown)
VH: EVQLVESGGGLVQPGGSLRLSCAASGFTFSSYWMSWVRQAPGKGLEWVANIKPDGSEKYYVDSVKGRFTISRDNAKNSVYLQMNSLRAEDTAVYYCARVSRGGSYSDWGQGTLVTVSS
VL: QSALTQPASVSGSPGQSITISCTGTSSDVGGYIYVSWYQQHPGKAPKLMIYDVSRRPSGISDRFSGSKSGNTASLTISGLQAEDEADYYCNSYTTLSTWLFGGGTKVTVL
notes: Human IgG2; also called IgG2 5; IgG25
B5: clone 30 IgG2 protein (antibody, V domains shown)
VH: QVQLQESGPGLVKPSQTLSLTCAISGDSVSSNSAAWNWIRQSPSRGLEWLGRTYYRSKWYNDYAVSVKSRMTIKADTSKNQFSLQLNSVTPEDTAVYYCARDEGPLDYWGQGTLVTVSA
VL: QAVLTQPSSVSGAPGQRVTISCTGSSSNLGTGYDVHWYQQLPGTAPKLLIYGNSNRPSGVPDRFSGSKSDTSGLLAITGLQAEDEATYYCQSYDFSLSAMVFGGGTKVTVL
notes: Human IgG2; also called IgG2 30

target: T1, mouse EpoR-Fc protein (muEpoR-Fc); test: ELISA: antibody coated at 1 µg/ml, biotinylated muEpoR-Fc at 5 µg/ml, streptavidin-HRP, ABTS

Binding result, binds:
B1, B2, B3, B4, B5
